B1: F-box only protein 31 (Homo sapiens), Q5XUX0 (parent)
chain: MAVCARLCGVGPSRGCRRRQQRRGPAETAAADSEPDTDPEEERIEASAGVGGGLCAGPSPPPPRCSLLELPPELLVEIFASLPGTDLPSLAQVCTKFRRILHTDTIWRRRCREEYGVCENLRKLEITGVSCRDVYAKLLHRYRHILGLWQPDIGPYGGLLNVVVDGLFIIGWMYLPPHDPHVDDPMRFKPLFRIHLMERKAATVECMYGHKGPHHGHIQIVKKDEFSTKCNQTDHHRMSGGRQEEFRTWLREEWGRTLEDIFHEHMQELILMKFIYTSQYDNCLTYRRIYLPPSRPDDLIKPGLFKGTYGSHGLEIVMLSFHGRRARGTKITGDPNIPAGQQTVEIDLRHRIQLPDLENQRNFNELSRIVLEVRERVRQEQQEGGHEAGEGRGRQGPRESQPSPAQPRAEAPSKGPDGTPGEDGGEPGDAVAAAEQPAQCGQGQPFVLPVGVSSRNEDYPRTCRMCFYGTGLIAGHGFTSPERTPGVFILFDEDRFGFVWLELKSFSLYSRVQATFRNADAPSPQAFDEMLKNIQSLTS

Variants of: B1
Settings: with atm_human ATM

effect of a mutation on the interaction	Variant
disrupting interaction	S278A
disrupting interaction	S400A

Reference: IntAct's records for PubMed 19412162
